In the supplement of paper PMC11316812:
± gives the standard deviation of the averaged measurements.

Tests used:
[1] = test system: MCF7; assay: percentage of EdU-negative (G0-arrested) nuclei per well, 72 h; higher = more G0 arrest; conditions: reference: sequence is the full UniProt precursor, the tested protein was the secreted form or ectodomain
[2] = test system: hTERT-HMEC; assay: as above; conditions: reference: sequence is the full UniProt precursor, the tested protein was the secreted form or ectodomain
[3] = protein concentration 0.0225 µM
[4] = protein concentration 0.03125 µM
[5] = protein concentration 0.3125 µM
[6] = protein concentration 0.0322857 µM
[7] = protein concentration 0.0337143 µM
[8] = protein concentration 0.322857 µM
[9] = protein concentration 0.337143 µM
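Further: secreted proteins added to cultured cells, EdU pulse at the end, nuclei found by Hoechst imaging, EdU status from nuclear versus surrounding ring intensity ratio, PBS as neutral control.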

For “MLPGAWLLWTSLLLLARPAQPCPMGCDCFVQEVFCSDEELATVPLDIPPYTKNIIFVETSFTTLETRAFGSNPNLTKVVFLNTQLCQFRPDAFGGLPRLEDLEVTGSSFLNLSTNIFSNLTSLGKLTLNFNMLEALPEGLFQHLAALESLHLQGNQLQALPRRLFQPLTHLKTLNLAQNLLAQLPEELFHPLTSLQTLKLSNNALSGLPQGVFGKLGSLQELFLDSNNISELPPQVFSQLFCLERLWLQRNAITHLPLSIFASLGNLTFLSLQWNMLRVLPAGLFAHTPCLVGLSLTHNQLETVAEGTFAHLSNLRSLMLSYNAITHLPAGIFRDLEELVKLYLGSNNLTALHPALFQNLSKLELLSLSKNQLTTLPEGIFDTNYNLFNLALHGNPWQCDCHLAYLFNWLQQYTDRLLNIQTYCAGPAYLKGQVVPALNEKQLVCPVTRDHLGFQVTWPDESKAGGSWDLAVQERAARSQCTYSNPEGTVVLACDQAQCRWLNVQLSPQQGSLGLQYNASQEWDLRSSCGSLRLTVSIEARAAGP”, the “percentage of EdU-negative” value ([1]; protein concentration 0.016 µM) was 25.6 ± 2.9%, the “percentage of EdU-negative” value ([1]; protein concentration 0.16 µM) was 31.1 ± 1.1% and the “percentage of EdU-negative” value ([2]; protein concentration 0.016 µM) was 4.47 ± 0.7%. For the same sequence, the “percentage of EdU-negative” value ([2]; protein concentration 0.16 µM) was 9.62 ± 2.1%.
For “MLPLLLLPLLWGGSLQEKPVYELQVQKSVTVQEGLCVLVPCSFSYPWRSWYSSPPLYVYWFRDGEIPYYAEVVATNNPDRRVKPETQGRFRLLGDVQKKNCSLSIGDARMEDTGSYFFRVERGRDVKYSYQQNKLNLEVTALIEKPDIHFLEPLESGRPTRLSCSLPGSCEAGPPLTFSWTGNALSPLDPETTRSSELTLTPRPEDHGTNLTCQMKRQGAQVTTERTVQLNVSYAPQTITIFRNGIALEILQNTSYLPVLEGQALRLLCDAPSNPPAHLSWFQGSPALNATPISNTGILELRRVRSAEEGGFTCRAQHPLGFLQIFLNLSVYSLPQLLGPSCSWEAEGLHCRCSFRARPAPSLCWRLEEKPLEGNSSQGSFKVNSSSAGPWANSSLILHGGLSSDLKVSCKAWNIYGSQSGSVLLLQGRSNLGTGVVPAALGGAGVMALLCICLCLIFFLIVKARRKQAAGRPEKMDDEDPIMGTITSGSRKKPWPDSPGDQASPPGDAPPLEEQKELHYASLSFSEMKSREPKDQEAPSTTEYSEIKTSK”, the “percentage of EdU-negative” value [1, 3] was 25 ± 0.77%, the “percentage of EdU-negative” value ([1]; protein concentration 0.225 µM) was 29.26 ± 0.077% and the “percentage of EdU-negative” value [2, 3] was 5.12 ± 0.15%. For the same sequence, the “percentage of EdU-negative” value ([2]; protein concentration 0.225 µM) was 5.64 ± 1%.
“MLPLWTLSLLLGAVAGKEVCYERLGCFSDDSPWSGITERPLHILPWSPKDVNTRFLLYTNENPNNFQEVAADSSSISGSNFKTNRKTRFIIHGFIDKGEENWLANVCKNLFKVESVNCICVDWKGGSRTGYTQASQNIRIVGAEVAYFVEFLQSAFGYSPSNVHVIGHSLGAHAAGEAGRRTNGTIGRITGLDPAEPCFQGTPELVRLDPSDAKFVDVIHTDGAPIVPNLGFGMSQVVGHLDFFPNGGVEMPGCKKNILSQIVDIDGIWEGTRDFAACNHLRSYKYYTDSIVNPDGFAGFPCASYNVFTANKCFPCPSGGCPQMGHYADRYPGKTNDVGQKFYLDTGDASNFARWRYKVSVTLSGKKVTGHILVSLFGNKGNSKQYEIFKGTLKPDSTHSNEFDSDVDVGDLQMVKFIWYNNVINPTLPRVGASKIIVETNVGKQFNFCSPETVREEVLLTLTPC” was tested, and the “percentage of EdU-negative” value [1, 4] was 22.6 ± 0.74%, the “percentage of EdU-negative” value [1, 5] was 24.8 ± 1.1% and the “percentage of EdU-negative” value [2, 4] was 4.88 ± 0.32%. For the same sequence, the “percentage of EdU-negative” value [2, 5] was 5.95 ± 0.29%.
With “MLPPMALPSVSWMLLSCLILLCQVQGEETQKELPSPRISCPKGSKAYGSPCYALFLSPKSWMDADLACQKRPSGKLVSVLSGAEGSFVSSLVRSISNSYSYIWIGLHDPTQGSEPDGDGWEWSSTDVMNYFAWEKNPSTILNPGHCGSLSRSTGFLKWKDYNCDAKLPYVCKFKD [Q6UW15]” the “percentage of EdU-negative” value [1, 3] was 25.43 ± 0.028%, the “percentage of EdU-negative” value ([1]; protein concentration 0.225 µM) was 26.8 ± 1.6% and the “percentage of EdU-negative” value [2, 3] was 4.59 ± 0.17%. The “percentage of EdU-negative” value ([2]; protein concentration 0.225 µM) was 5.21 ± 0.13%.
For “MLPPMALPSVSWMLLSCLMLLSQVQGEEPQRELPSARIRCPKGSKAYGSHCYALFLSPKSWTDADLACQKRPSGNLVSVLSGAEGSFVSSLVKSIGNSYSYVWIGLHDPTQGTEPNGEGWEWSSSDVMNYFAWERNPSTISSPGHCASLSRSTAFLRWKDYNCNVRLPYVCKFTD”, the “percentage of EdU-negative” value [1, 6] was 24.2 ± 2.7%, the “percentage of EdU-negative” value [1, 7] was 24.3 ± 1.6% and the “percentage of EdU-negative” value [1, 8] was 26.7 ± 1.1%. For the same sequence, the “percentage of EdU-negative” value [1, 9] was 27.4 ± 2.9%, the “percentage of EdU-negative” value [2, 6] was 5.46 ± 0.53% and the “percentage of EdU-negative” value [2, 7] was 5.04 ± 0.18%. The “percentage of EdU-negative” value [2, 8] was 7.94 ± 0.33% and the “percentage of EdU-negative” value [2, 9] was 6.63 ± 1.3%.
In the case of “MLPPPRPAAALALPVLLLLLVVLTPPPTGARPSPGPDYLRRGWMRLLAEGEGCAPCRPEECAAPRGCLAGRVRDACGCCWECANLEGQLCDLDPSAHFYGHCGEQLECRLDTGGDLSRGEVPEPLCACRSQSPLCGSDGHTYSQICRLQEAARARPDANLTVAHPGPCESGPQIVSHPYDTWNVTGQDVIFGCEVFAYPMASIEWRKDGLDIQLPGDDPHISVQFRGGPQRFEVTGWLQIQAVRPSDEGTYRCLGRNALGQVEAPASLTVLTPDQLNSTGIPQLRSLNLVPEEEAESEENDDYY [Q96I82]”, the “percentage of EdU-negative” value [1, 3] is reported as 25.7 ± 0.96%, the “percentage of EdU-negative” value ([1]; protein concentration 0.225 µM) is reported as 28.1 ± 2.9% and the “percentage of EdU-negative” value [2, 3] is reported as 5.43 ± 0.24%. For the same sequence, the “percentage of EdU-negative” value ([2]; protein concentration 0.225 µM) was 5.18 ± 0.4%.
